Test results: the supplement of paper PMC7877785
± gives the uncertainty stated by the source.

Assay: self-splicing fitness, log relative to wild type (ln ratio); higher = more splicing; Tetrahymena group I intron in knt gene, E. coli kanamycin selection, DiMSum; sequences stand for … in CUCUCU…GGAGGGAAAAGUUAUCAGGCAUGCACCUGGUAGCUAGUCUUUAAACCAAUAGAUUGCAUCGGUUUAAAAGGCAAGACCGUCAAAUUGCGGGAAAGGGGUCAACAGCCGUUCAGUACCAAGUCUCAGGGGAAACUUUGAGAUGGCCUUGCAAAGGGUAUGGUAAUAAGCUGACGGACAUGGUCCUAACCACGCAGCCAAGUCCUAAGUCAACAGAUCUUCUGUUGAUAUGGAUGCAGUUCACAGACUAAAUGUCGGUCGGGGAAGAUGUAUUCUUCUCAUAAGAUAUAGUCGGACCUCUCCUUAAUGGGAGCUAGCGGAUGAAGUGAUGCAACACUGGAGCCGCUGGGAACUAAUUUGUAUGCGAAAGUAUAUUGAUUAGUUUUGGAGUACUCGUGGUCG
Method in brief: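 Pooled colonies went to amplicon sequencing on an Illumina HiSeq 2500 after six replicate transformations. The plates were LB agar with 100 μg/mL carbenicillin, 50 μM IPTG and 0.2% rhamnose, with or without 25 μg/mL kanamycin, incubated overnight at 37°C or 30°C. The E. coli BL21(DE3) library had all eight P1ex-region intron nucleotides randomised, the intron placed in the knt kanamycin-resistance gene on pET-22b(+). DiMSum fitness is the error-weighted combination of replicate fold changes, kanamycin against none, normalised to wild type.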

| Sequence | self-splicing fitness (ln) (30 °C) | self-splicing fitness (ln) (37 °C) |
| --- | --- | --- |
| AGGCAGCAAUAUUACGUUUC | -2.17 ± 0.095 | -1.75 ± 0.15 |
| AGGGAGCAAUAUUACGACUC | -1.2 ± 0.48 | -1.92 ± 0.48 |
| AGGGAGCAAUAUUACGAUGU | -1.22 ± 0.098 | -2.13 ± 0.19 |
| AGGGAGCAAUAUUACGCCAC | -2.47 ± 0.49 | – |
| AGGGAGCAAUAUUACGCGAU | -2.89 ± 0.29 | -1.84 ± 0.47 |
| AGGGAGCAAUAUUACGCGGG | -1.93 ± 0.2 | – |
| AGGGAGCAAUAUUACGCGUG | -2.4 ± 0.15 | -2.35 ± 0.23 |
| AGGGAGCAAUAUUACGCUUG | -1.95 ± 0.27 | – |
| AGGGAGCAAUAUUACGCUUU | -2.49 ± 0.45 | -2.48 ± 0.5 |
| AGGGAGCAAUAUUACGGAAG | -3.61 ± 0.4 | -1.02 ± 0.33 |
| AGGGAGCAAUAUUACGGAUA | -3.15 ± 0.31 | – |
| AGGGAGCAAUAUUACGGCCG | -1.81 ± 0.16 | -1.96 ± 0.16 |
| AGGGAGCAAUAUUACGGGGU | -3.27 ± 0.36 | -3.01 ± 0.31 |
| AGGGAGCAAUAUUACGGUGA | -1.8 ± 0.24 | -1.66 ± 0.26 |
| AGGGAGCAAUAUUACGGUGG | -3.72 ± 0.27 | -3.79 ± 0.36 |
| AGGGAGCAAUAUUACGGUUG | -2.87 ± 0.19 | -2.76 ± 0.36 |
| AGGGAGCAAUAUUACGUAAU | – | -2.05 ± 0.26 |
| AGGGAGCAAUAUUACGUGUA | -3.24 ± 0.35 | -3.06 ± 0.31 |
| AGGGAGCAAUAUUACGUUGC | – | -1.37 ± 0.31 |
| AGGUAGCAAUAUUACGACUG | -0.0476 ± 0.015 | -0.0252 ± 0.034 |
| AGGUAGCAAUAUUACGAGAA | -2.95 ± 0.05 | -2.09 ± 0.047 |
| AGGUAGCAAUAUUACGAUCU | -0.913 ± 0.016 | -0.426 ± 0.034 |
| AGGUAGCAAUAUUACGCAGA | -2.681 ± 0.023 | -1.59 ± 0.034 |
| AGGUAGCAAUAUUACGCAUC | -3.221 ± 0.027 | -1.72 ± 0.038 |
| AGGUAGCAAUAUUACGCCAA | -1.19 ± 0.02 | -0.512 ± 0.035 |

| Sequence | self-splicing fitness (ln) (30 °C) | self-splicing fitness (ln) (37 °C) |
| --- | --- | --- |
| AGGUAGCAAUAUUACGCCAG | -1.22 ± 0.02 | -0.873 ± 0.037 |
| AGGUAGCAAUAUUACGCCGC | -3.58 ± 0.053 | -2.77 ± 0.067 |
| AGGUAGCAAUAUUACGCCGG | -1.09 ± 0.017 | -0.556 ± 0.034 |
| AGGUAGCAAUAUUACGCGAU | -3.466 ± 0.03 | -2.24 ± 0.039 |
| AGGUAGCAAUAUUACGCGCA | -0.305 ± 0.016 | 0.00281 ± 0.034 |
| AGGUAGCAAUAUUACGCGCU | -1.13 ± 0.017 | -0.72 ± 0.036 |
| AGGUAGCAAUAUUACGCGGC | -4.05 ± 0.044 | -2.93 ± 0.048 |
| AGGUAGCAAUAUUACGGAAA | -2.92 ± 0.033 | -1.96 ± 0.039 |
| AGGUAGCAAUAUUACGGACC | -0.613 ± 0.019 | -0.424 ± 0.037 |
| AGGUAGCAAUAUUACGGAUC | -1.721 ± 0.017 | -0.787 ± 0.034 |
| AGGUAGCAAUAUUACGGCAG | -1.25 ± 0.015 | -0.539 ± 0.033 |
| AGGUAGCAAUAUUACGGCGA | -0.281 ± 0.015 | -0.0476 ± 0.033 |
| AGGUAGCAAUAUUACGGGAC | -3.462 ± 0.028 | -2.15 ± 0.039 |
| AGGUAGCAAUAUUACGGUGU | -2.356 ± 0.015 | -1.01 ± 0.033 |
| AGGUAGCAAUAUUACGGUUG | -3.675 ± 0.026 | -2.4 ± 0.039 |
| AGGUAGCAAUAUUACGUACC | -1.99 ± 0.028 | -1.14 ± 0.042 |
| AGGUAGCAAUAUUACGUAUC | -3.25 ± 0.025 | -2.07 ± 0.038 |
| AGGUAGCAAUAUUACGUCGU | -1.761 ± 0.015 | -0.841 ± 0.034 |
| AGGUAGCAAUAUUACGUCUC | -3.938 ± 0.036 | -2.38 ± 0.047 |
| AGGUAGCAAUAUUACGUCUU | -0.915 ± 0.014 | -0.371 ± 0.033 |
| AGGUAGCAAUAUUACGUGCA | -0.829 ± 0.014 | -0.279 ± 0.033 |
| AGUAAGCAAUAUUACGAAAU | -3.49 ± 0.21 | -2.18 ± 0.17 |
| AGUAAGCAAUAUUACGACCA | -0.203 ± 0.12 | 0.184 ± 0.21 |
| AGUAAGCAAUAUUACGACUA | -0.283 ± 0.13 | -0.43 ± 0.13 |
| AGUAAGCAAUAUUACGACUU | -0.394 ± 0.068 | -0.58 ± 0.097 |

| Sequence | self-splicing fitness (ln) (30 °C) | self-splicing fitness (ln) (37 °C) |
| --- | --- | --- |
| AGUAAGCAAUAUUACGAUCA | 0.197 ± 0.16 | -0.44 ± 0.15 |
| AGUAAGCAAUAUUACGCAAC | – | -2.61 ± 0.38 |
| AGUAAGCAAUAUUACGCAAG | -2.99 ± 0.16 | -1.88 ± 0.19 |
| AGUAAGCAAUAUUACGCACG | -1.43 ± 0.1 | -0.219 ± 0.12 |
| AGUAAGCAAUAUUACGCCGC | -1.03 ± 0.25 | -2.95 ± 0.48 |
| AGUAAGCAAUAUUACGCCGU | -0.289 ± 0.17 | -2.06 ± 0.31 |
| AGUAAGCAAUAUUACGCCUG | -2.19 ± 0.12 | -1.15 ± 0.12 |
| AGUAAGCAAUAUUACGCGGG | -2.82 ± 0.29 | -2.13 ± 0.29 |
| AGUAAGCAAUAUUACGCGUC | -3.37 ± 0.19 | -2.2 ± 0.17 |
| AGUAAGCAAUAUUACGCUCA | -0.405 ± 0.12 | -0.595 ± 0.11 |
| AGUAAGCAAUAUUACGCUCG | -0.783 ± 0.17 | -0.584 ± 0.21 |
| AGUAAGCAAUAUUACGCUCU | -1.96 ± 0.2 | -1.59 ± 0.27 |
| AGUAAGCAAUAUUACGCUGC | -2.97 ± 0.29 | – |
| AGUAAGCAAUAUUACGCUGU | -2.78 ± 0.22 | -1.88 ± 0.3 |
| AGUAAGCAAUAUUACGGAAC | -1.82 ± 0.25 | -2.6 ± 0.27 |
| AGUAAGCAAUAUUACGGACA | -0.314 ± 0.091 | -0.393 ± 0.11 |
| AGUAAGCAAUAUUACGGCAG | -2.1 ± 0.16 | -1.53 ± 0.2 |
| AGUAAGCAAUAUUACGGCCG | -0.888 ± 0.11 | -0.63 ± 0.18 |
| AGUAAGCAAUAUUACGGGAU | -3.01 ± 0.25 | -1.12 ± 0.15 |
| AGUAAGCAAUAUUACGGGGG | -3.08 ± 0.22 | -2.87 ± 0.29 |
| AGUAAGCAAUAUUACGGUGG | -3.68 ± 0.2 | -1.66 ± 0.16 |
| AGUAAGCAAUAUUACGUAGC | -4.37 ± 0.42 | -3.1 ± 0.47 |
| AGUAAGCAAUAUUACGUCCC | -0.303 ± 0.15 | 0.019 ± 0.18 |
| AGUAAGCAAUAUUACGUCGG | -3.61 ± 0.35 | -1.8 ± 0.29 |
| AGUCAGCAAUAUUACGAACC | -0.519 ± 0.15 | -0.0581 ± 0.16 |

| Sequence | self-splicing fitness (ln) (30 °C) | self-splicing fitness (ln) (37 °C) |
| --- | --- | --- |
| AGUCAGCAAUAUUACGAACG | 0.155 ± 0.087 | 0.717 ± 0.15 |
| AGUCAGCAAUAUUACGAAUC | -0.727 ± 0.13 | -0.18 ± 0.19 |
| AGUCAGCAAUAUUACGACCU | -0.358 ± 0.081 | 0.103 ± 0.11 |
| AGUCAGCAAUAUUACGAUAA | -0.337 ± 0.087 | -0.697 ± 0.1 |
| AGUCAGCAAUAUUACGAUAC | -1.69 ± 0.12 | -0.336 ± 0.11 |
| AGUCAGCAAUAUUACGAUCG | -0.601 ± 0.091 | 0.358 ± 0.14 |
| AGUCAGCAAUAUUACGAUUU | -0.399 ± 0.064 | -0.286 ± 0.11 |
| AGUCAGCAAUAUUACGCAAU | -0.997 ± 0.075 | 0.245 ± 0.096 |
| AGUCAGCAAUAUUACGCACU | -2.19 ± 0.12 | -1.42 ± 0.13 |
| AGUCAGCAAUAUUACGCAGC | -2.28 ± 0.15 | -1.22 ± 0.16 |
| AGUCAGCAAUAUUACGCCAG | -3.55 ± 0.34 | -2.47 ± 0.31 |
| AGUCAGCAAUAUUACGCCCA | -1.19 ± 0.13 | 0.479 ± 0.18 |
| AGUCAGCAAUAUUACGCCGA | -1.92 ± 0.25 | -1.92 ± 0.3 |
| AGUCAGCAAUAUUACGCGUG | -1.28 ± 0.097 | -0.66 ± 0.11 |
| AGUCAGCAAUAUUACGCGUU | 0.159 ± 0.077 | 0.0714 ± 0.085 |
| AGUCAGCAAUAUUACGCUAG | -3.33 ± 0.18 | -2.64 ± 0.23 |
| AGUCAGCAAUAUUACGCUUG | -2.79 ± 0.15 | -0.514 ± 0.15 |
| AGUCAGCAAUAUUACGGCAG | -0.629 ± 0.11 | -0.145 ± 0.15 |
| AGUCAGCAAUAUUACGGCUC | -3.84 ± 0.43 | -1.54 ± 0.45 |
| AGUCAGCAAUAUUACGGGAC | -2.45 ± 0.18 | -2.16 ± 0.24 |
| AGUCAGCAAUAUUACGGGCA | -0.79 ± 0.095 | -0.281 ± 0.11 |
| AGUCAGCAAUAUUACGGGCU | -2.43 ± 0.19 | -3.12 ± 0.43 |
